# Results reported in US20240123029A1 (HUMANITAS MIRASOLE S P A, published 2024).
# B1: Purified C-reactive protein (CRP) (other)
# chain: QTDMSRKAFVFPKESDTSYVSLKAPLTKPLKAFTVCLHFYTELSSTRGYSIFSYATKRQDNEILIFWSKDIGYSFTVGGSEILFEVPEVTVAPVHICTSWESASGIVEFWVDGKPRVRKSLKKGYTVGAEASIILGQEQDSFGGNFEGSQSLVGDIGNVNMWDFVLSPDEINTIYLGGPFSPNVLNWRALKYEVQGEVFTKPQLWP
# Molecular target: T1, SARS-CoV-2 Nucleocapsid protein, His Tag (SARS-CoV-2, UniProt P0DTC9 1-419)
# T1 construct: Bought
# Assay: ELISA, His-tagged viral protein captured on nickel plates (6.25-50 pmol/mL)
binder,measurement,value
B1,binding result,no binding (tested: CRP 3 µg/mL (25 nM))
